Patent US5563039, “TNF receptor-associated intracellular signaling proteins and methods of use” (Tularik, Inc., dated 1996)

How the values were obtained:
[1] = target: cytoplasmic domain of Fas antigen expressed as GAL4bd chimera (yeast, UniProt P04386); assay: yeast two-hybrid, strain SFY526
[2] = target: GST fusion protein containing the cytoplasmic domain of Fas antigen (Homo sapiens (Human), UniProt P25445); assay: GST pull-down of 35S-labeled TRADD

binding result [1]	binding result [2]	Binder
no binding	–	GAL4ad-TRADD (GAL4 activation domain fused to full length TRADD) (other) MAAGQNGHEEWVGSAYLFVESSLDKVVLSDAYAHPQQKVAVYRALQAALAESGGSPDVLQMLKIHRSDPQLIVQLRFCGRQPCGRFLRAYREGALRAALQRSLAAALAQHSVPLQLELRAGAERLDALLADEERCLSCILAQQPDRLRDEELAELEDALRNLKCGSGARGGDGEVASAPLQPPVPSLSEVKPPPPPPPAQTFLFQGQPVVNRPLSLKDQQTFARSVGLKWRKVGRSLQRGCRALRDPALDSLAYEYEREGLYEQAFQLLRRFVQAEGRRATLQRLVEALEENELTSLAEDLLGLTDPNGGLA
–	no binding	35S-labeled TRADD prepared by in vitro transcription and translation (other, 35S-labeled) MAAGQNGHEEWVGSAYLFVESSLDKVVLSDAYAHPQQKVAVYRALQAALAESGGSPDVLQMLKIHRSDPQLIVQLRFCGRQPCGRFLRAYREGALRAALQRSLAAALAQHSVPLQLELRAGAERLDALLADEERCLSCILAQQPDRLRDEELAELEDALRNLKCGSGARGGDGEVASAPLQPPVPSLSEVKPPPPPPPAQTFLFQGQPVVNRPLSLKDQQTFARSVGLKWRKVGRSLQRGCRALRDPALDSLAYEYEREGLYEQAFQLLRRFVQAEGRRATLQRLVEALEENELTSLAEDLLGLTDPNGGLA
